How the values were obtained:
[1] = target: the molecule itself; experiment: crystal structure; hanging-drop vapour diffusion; segment 9.69 mg ml^-1 in water with 31 mM lithium hydroxide; reservoir 0.15 M ammonium acetate, 35% MPD, 0.1 M Bis-Tris pH 5.5
[2] = target: the molecule itself; experiment: X-ray fibre diffraction; mC-hnRNPA2-LCD hydrogel (~60 mg ml^-1, 4 °C) air-dried between two capillary glass rods; 100 K

B1: hnRNPA2 mutant core segment GNYNVF (286-291, D290V) (peptide)
peptide: GNYNVF
notes: hexamer segment 286-291 of human hnRNPA2 LCD with the disease variant D290V (multisystem proteinopathy); numbers count on the 341-residue hnRNPA2 (isoform A2); also called mutant segment; disease-causing mutant core segment
binding result [1]: binds

B2: mCherry-hnRNPA2-LCD fusion protein (domain or fragment, human, UniProt P22626-2 181-341, looked up)
chain: MQEVQSSRSGRGGNFGFGDSRGGGGNFGPGPGSNFRGGSDGYGSGRGFGDGYNGYGGGPGGGNFGGSPGYGGGRGGYGGGGPGYGNQGGGYGGGYDNYGGGNYGSGNYNDFGNYNQQPSNYGPMKSGNFGGSRNMGGPYGGGNYGPGGSGGSGGYGGRSRY
notes: hnRNPA2 C-terminal low-complexity domain (LCD), human, residues 181-341 of the 341-residue protein (161 residues); printed length 341 = isoform A2 of HNRNPA2B1; Only Gly263-Tyr319 is ordered in the fibril core; also called mC-hnRNPA2-LCD; mCh-hnRNPA2-LCD; source: E. coli BL21(DE3), purified (HisTrap HP column, in 2 M guanidine HCl), dialysed and concentrated; not shown: mCherry, N-terminal, kept
binding result [2]: binds
